Assay results published in PMC10786891, “Massively parallel profiling of RNA-targeting CRISPR-Cas13d”.

T1: EsCas13d, nuclease-dead (Eubacterium siraeum, UniProt B0MS50, R295A;H300A;R849A;H854A)
T1 sequence: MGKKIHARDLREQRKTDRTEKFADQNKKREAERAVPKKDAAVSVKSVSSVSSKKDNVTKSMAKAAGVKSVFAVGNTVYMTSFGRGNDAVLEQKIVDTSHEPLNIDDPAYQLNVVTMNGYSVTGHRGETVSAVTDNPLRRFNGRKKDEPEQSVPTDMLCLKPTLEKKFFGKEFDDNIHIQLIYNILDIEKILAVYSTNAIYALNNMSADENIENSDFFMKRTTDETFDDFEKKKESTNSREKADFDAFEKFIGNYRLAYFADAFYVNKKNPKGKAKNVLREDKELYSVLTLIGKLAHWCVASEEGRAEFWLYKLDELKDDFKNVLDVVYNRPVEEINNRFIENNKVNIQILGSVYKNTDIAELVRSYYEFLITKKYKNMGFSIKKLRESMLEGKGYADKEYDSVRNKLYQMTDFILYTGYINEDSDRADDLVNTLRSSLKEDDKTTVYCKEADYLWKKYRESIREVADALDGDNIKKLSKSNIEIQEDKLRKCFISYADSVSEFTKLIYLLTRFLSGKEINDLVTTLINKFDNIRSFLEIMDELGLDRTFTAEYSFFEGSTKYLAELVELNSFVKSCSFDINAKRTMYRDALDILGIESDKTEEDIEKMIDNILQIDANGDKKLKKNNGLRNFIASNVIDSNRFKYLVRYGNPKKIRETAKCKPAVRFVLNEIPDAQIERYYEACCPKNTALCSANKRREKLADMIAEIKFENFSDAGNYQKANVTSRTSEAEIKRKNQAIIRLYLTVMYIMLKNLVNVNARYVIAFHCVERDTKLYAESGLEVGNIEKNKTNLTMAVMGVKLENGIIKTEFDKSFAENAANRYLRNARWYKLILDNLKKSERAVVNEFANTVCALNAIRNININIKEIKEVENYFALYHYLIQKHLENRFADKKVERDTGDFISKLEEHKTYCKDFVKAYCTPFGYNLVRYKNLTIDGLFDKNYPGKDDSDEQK


Biological target: T1, EsCas13d, nuclease-dead
Assay: crRNA (strand 1, pre-loaded); Mg2+; 40 mM Tris-HCl pH 7.5, 150 mM NaCl, 6 mM MgCl2, 1 mM DTT, 0.1% Tween-20, 0.2 mg/ml BSA; 25 C; 10 min per concentration, then washed
Conditions: tags: His6-TwinStrep-SUMO cleaved; N-terminal SNAP kept (SNAP-Surface 488); label: 3' end held by stalled T7 RNA polymerase

Row | Binder | Kd [nM]
1 | target 1 C7A,A18G (mixed) RNA 1: CACCCGUGCAAAAAUGCAGGGGUCUAAAACUGAGCGGAUAACCUCUCUAUGG RNA 2: GGGAAUGGAUCCACAUCUACGAAUUCGUACCAUGGAGAGGUUAUACGCUCACCGAGAUCGGAAGAGCACACGU | 50 ± 8
2 | target 1 insG 3' of 18,insU 3' of 17 (mixed) RNA 1: CACCCGUGCAAAAAUGCAGGGGUCUAAAACUGAGCGGAUAACCUCUCUAUGG RNA 2: GGGAAUGGAUCCACAUCUACGAAUUCGUACCAUAGGUAGAGGUUAUCCGCUCACCGAGAUCGGAAGAGCACACGU | 30.3 ± 2.6
3 | target 2 MT 5'PFS UCG 3'PFS AUC (mixed) RNA 1: CACCCGUGCAAAAUUGCAGGGGUCUAAAACCUUCUCCAAAUUGUUUCAUCCU RNA 2: GGGAAUGGAUCCACAUCUACGAAUUCUCGAGGAUGAAACAAUUUGGAGAAGAUCAGAUCGGAAGAGCACACGU | ~70
4 | target 2 MT 5'PFS ACC 3'PFS AAA (mixed) RNA 1: CACCCGUGCAAAAUUGCAGGGGUCUAAAACCUUCUCCAAAUUGUUUCAUCCU RNA 2: GGGAAUGGAUCCACAUCUACGAAUUCACCAGGAUGAAACAAUUUGGAGAAGAAAAGAUCGGAAGAGCACACGU | 9.3 ± 2.7
5 | target 2 MT 5'PFS UAU 3'PFS AUC (mixed) RNA 1: CACCCGUGCAAAAUUGCAGGGGUCUAAAACCUUCUCCAAAUUGUUUCAUCCU RNA 2: GGGAAUGGAUCCACAUCUACGAAUUCUAUAGGAUGAAACAAUUUGGAGAAGAUCAGAUCGGAAGAGCACACGU | 53 ± 9
6 | target 2 MT 5'PFS ACC 3'PFS AAU (mixed) RNA 1: CACCCGUGCAAAAUUGCAGGGGUCUAAAACCUUCUCCAAAUUGUUUCAUCCU RNA 2: GGGAAUGGAUCCACAUCUACGAAUUCACCAGGAUGAAACAAUUUGGAGAAGAAUAGAUCGGAAGAGCACACGU | 8 ± 1.2
7 | target 2 MT 5'PFS GAU 3'PFS UGA (mixed) RNA 1: CACCCGUGCAAAAUUGCAGGGGUCUAAAACCUUCUCCAAAUUGUUUCAUCCU RNA 2: GGGAAUGGAUCCACAUCUACGAAUUCGAUAGGAUGAAACAAUUUGGAGAAGUGAAGAUCGGAAGAGCACACGU | 19 ± 5
8 | target 2 MT 5'PFS ACC 3'PFS AAC (mixed) RNA 1: CACCCGUGCAAAAUUGCAGGGGUCUAAAACCUUCUCCAAAUUGUUUCAUCCU RNA 2: GGGAAUGGAUCCACAUCUACGAAUUCACCAGGAUGAAACAAUUUGGAGAAGAACAGAUCGGAAGAGCACACGU | 10.5 ± 3.1
9 | target 2 MT 5'PFS GAU 3'PFS UGU (mixed) RNA 1: CACCCGUGCAAAAUUGCAGGGGUCUAAAACCUUCUCCAAAUUGUUUCAUCCU RNA 2: GGGAAUGGAUCCACAUCUACGAAUUCGAUAGGAUGAAACAAUUUGGAGAAGUGUAGAUCGGAAGAGCACACGU | 21.2 ± 2.2
10 | target 2 MT 5'PFS UCG 3'PFS AUA (mixed) RNA 1: CACCCGUGCAAAAUUGCAGGGGUCUAAAACCUUCUCCAAAUUGUUUCAUCCU RNA 2: GGGAAUGGAUCCACAUCUACGAAUUCUCGAGGAUGAAACAAUUUGGAGAAGAUAAGAUCGGAAGAGCACACGU | 29 ± 9
11 | target 2 MT 5'PFS UUA 3'PFS UCG (mixed) RNA 1: CACCCGUGCAAAAUUGCAGGGGUCUAAAACCUUCUCCAAAUUGUUUCAUCCU RNA 2: GGGAAUGGAUCCACAUCUACGAAUUCUUAAGGAUGAAACAAUUUGGAGAAGUCGAGAUCGGAAGAGCACACGU | 25 ± 4
12 | target 2 MT 5'PFS GAU 3'PFS UGC (mixed) RNA 1: CACCCGUGCAAAAUUGCAGGGGUCUAAAACCUUCUCCAAAUUGUUUCAUCCU RNA 2: GGGAAUGGAUCCACAUCUACGAAUUCGAUAGGAUGAAACAAUUUGGAGAAGUGCAGAUCGGAAGAGCACACGU | 14.9 ± 1.9
13 | target 2 MT 5'PFS GGA 3'PFS AUU (mixed) RNA 1: CACCCGUGCAAAAUUGCAGGGGUCUAAAACCUUCUCCAAAUUGUUUCAUCCU RNA 2: GGGAAUGGAUCCACAUCUACGAAUUCGGAAGGAUGAAACAAUUUGGAGAAGAUUAGAUCGGAAGAGCACACGU | 9 ± 1
